Test results: the supplement of paper PMC7877785
± gives the uncertainty stated by the source.

Assay: self-splicing fitness, log relative to wild type (ln ratio); higher = more splicing; Tetrahymena group I intron in knt gene, E. coli kanamycin selection, DiMSum; sequences stand for … in CUCUCU…GGAGGGAAAAGUUAUCAGGCAUGCACCUGGUAGCUAGUCUUUAAACCAAUAGAUUGCAUCGGUUUAAAAGGCAAGACCGUCAAAUUGCGGGAAAGGGGUCAACAGCCGUUCAGUACCAAGUCUCAGGGGAAACUUUGAGAUGGCCUUGCAAAGGGUAUGGUAAUAAGCUGACGGACAUGGUCCUAACCACGCAGCCAAGUCCUAAGUCAACAGAUCUUCUGUUGAUAUGGAUGCAGUUCACAGACUAAAUGUCGGUCGGGGAAGAUGUAUUCUUCUCAUAAGAUAUAGUCGGACCUCUCCUUAAUGGGAGCUAGCGGAUGAAGUGAUGCAACACUGGAGCCGCUGGGAACUAAUUUGUAUGCGAAAGUAUAUUGAUUAGUUUUGGAGUACUCGUGGUCG
Outline: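 Fitness was computed with DiMSum as the error-weighted combination of replicate fold changes, kanamycin versus none, each normalised to wild type. The library randomised all eight intron nucleotides of the P1ex region, with the intron placed in the knt kanamycin-resistance gene on pET-22b(+) in E. coli BL21(DE3). Six replicate transformations were grown overnight at 37°C or 30°C on LB agar with or without 25 μg/mL kanamycin, plus 100 μg/mL carbenicillin, 50 μM IPTG and 0.2% rhamnose. Pooled colonies were amplicon-sequenced on an Illumina HiSeq 2500.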

Sequence | self-splicing fitness (ln) (30 °C) | self-splicing fitness (ln) (37 °C)
ACUCAGCAAUAUUACGAGCG | -0.49 ± 0.061 | -0.185 ± 0.071
ACUCAGCAAUAUUACGAUGU | -1.35 ± 0.064 | -0.811 ± 0.074
ACUCAGCAAUAUUACGAUUG | -2.74 ± 0.084 | -1.59 ± 0.1
ACUCAGCAAUAUUACGCACU | -0.199 ± 0.064 | 0.205 ± 0.079
ACUCAGCAAUAUUACGCGAG | -2.93 ± 0.2 | -1.21 ± 0.17
ACUCAGCAAUAUUACGCGGA | -2.79 ± 0.16 | -3.35 ± 0.27
ACUCAGCAAUAUUACGCUAG | -1.74 ± 0.094 | -1.3 ± 0.11
ACUCAGCAAUAUUACGCUGG | -2.43 ± 0.12 | -2.86 ± 0.22
ACUCAGCAAUAUUACGGAAC | -1.64 ± 0.12 | -1.76 ± 0.19
ACUCAGCAAUAUUACGGAGG | -2.28 ± 0.13 | -1.35 ± 0.17
ACUCAGCAAUAUUACGUAAA | -1.36 ± 0.069 | -0.79 ± 0.09
ACUCAGCAAUAUUACGUAAC | -2.79 ± 0.14 | -1.2 ± 0.16
ACUCAGCAAUAUUACGUACA | -1.74 ± 0.1 | -0.876 ± 0.1
ACUCAGCAAUAUUACGUCAU | -1.29 ± 0.068 | -0.61 ± 0.088
ACUCAGCAAUAUUACGUCCU | -1.18 ± 0.094 | 0.185 ± 0.11
ACUCAGCAAUAUUACGUUUU | -2.1 ± 0.048 | -0.817 ± 0.061
ACUGAGCAAUAUUACGACAG | -0.882 ± 0.091 | -0.105 ± 0.12
ACUGAGCAAUAUUACGACGG | -1.08 ± 0.1 | -0.161 ± 0.13
ACUGAGCAAUAUUACGAGUA | – | -1.6 ± 0.2
ACUGAGCAAUAUUACGCAAC | -3.87 ± 0.31 | –
ACUGAGCAAUAUUACGCAUG | -1.95 ± 0.14 | -2.23 ± 0.16
ACUGAGCAAUAUUACGCCUC | -2.32 ± 0.31 | –
ACUGAGCAAUAUUACGCGUC | -4.21 ± 0.29 | -2.35 ± 0.21
ACUGAGCAAUAUUACGCUGA | -2.19 ± 0.47 | -1.2 ± 0.34

Sequence | self-splicing fitness (ln) (30 °C) | self-splicing fitness (ln) (37 °C)
ACUGAGCAAUAUUACGCUUC | -3.57 ± 0.24 | -3.1 ± 0.28
ACUGAGCAAUAUUACGGAUG | -2.58 ± 0.12 | -1.67 ± 0.14
ACUGAGCAAUAUUACGGAUU | -3.91 ± 0.27 | -1.59 ± 0.16
ACUGAGCAAUAUUACGGCGA | -1.87 ± 0.099 | -1.19 ± 0.11
ACUGAGCAAUAUUACGGCUU | -3.22 ± 0.21 | -3.27 ± 0.4
ACUGAGCAAUAUUACGGGGC | -4.03 ± 0.33 | -1.57 ± 0.22
ACUGAGCAAUAUUACGUAUG | -3.4 ± 0.15 | -1.08 ± 0.14
ACUGAGCAAUAUUACGUCCA | -3.1 ± 0.36 | -2 ± 0.4
ACUGAGCAAUAUUACGUCCG | -2.79 ± 0.17 | -1.58 ± 0.17
ACUGAGCAAUAUUACGUGGA | -2.94 ± 0.2 | -2.88 ± 0.2
ACUGAGCAAUAUUACGUUCA | -3.87 ± 0.28 | -1.55 ± 0.2
ACUGAGCAAUAUUACGUUGA | -3.25 ± 0.15 | -2.48 ± 0.15
ACUGAGCAAUAUUACGUUUG | -3.97 ± 0.21 | -2.53 ± 0.18
ACUGAGCAAUAUUACGUUUU | -4.25 ± 0.26 | -2.07 ± 0.18
ACUUAGCAAUAUUACGACUA | -1.81 ± 0.17 | -0.513 ± 0.14
ACUUAGCAAUAUUACGACUG | -1.53 ± 0.099 | -0.694 ± 0.16
ACUUAGCAAUAUUACGAGUG | -1.17 ± 0.12 | -1.58 ± 0.13
ACUUAGCAAUAUUACGAUCC | -1.9 ± 0.15 | -0.595 ± 0.2
ACUUAGCAAUAUUACGCCAA | -3.19 ± 0.29 | -2.17 ± 0.28
ACUUAGCAAUAUUACGCCCA | -1.29 ± 0.21 | -0.528 ± 0.22
ACUUAGCAAUAUUACGCUCG | -0.969 ± 0.1 | -0.233 ± 0.16
ACUUAGCAAUAUUACGCUUU | -1.69 ± 0.088 | -1.42 ± 0.14
ACUUAGCAAUAUUACGGAAC | -3.24 ± 0.19 | -1.07 ± 0.34
ACUUAGCAAUAUUACGGCGA | -1.21 ± 0.21 | -0.343 ± 0.21

Sequence | self-splicing fitness (ln) (30 °C) | self-splicing fitness (ln) (37 °C)
ACUUAGCAAUAUUACGGCUC | -0.897 ± 0.061 | -0.503 ± 0.077
ACUUAGCAAUAUUACGGGCG | -0.769 ± 0.078 | -0.483 ± 0.085
ACUUAGCAAUAUUACGGGUC | -3.35 ± 0.13 | -3.27 ± 0.2
ACUUAGCAAUAUUACGGGUG | -1.14 ± 0.059 | -0.754 ± 0.085
ACUUAGCAAUAUUACGGUCG | -2.52 ± 0.17 | -1.35 ± 0.2
ACUUAGCAAUAUUACGUCCG | -2.09 ± 0.2 | -0.774 ± 0.25
ACUUAGCAAUAUUACGUCUA | -1.67 ± 0.16 | -1.83 ± 0.17
ACUUAGCAAUAUUACGUGUG | -2.2 ± 0.09 | -1.06 ± 0.087
ACUUAGCAAUAUUACGUUGC | -3.9 ± 0.38 | -1.8 ± 0.26
ACUUAGCAAUAUUACGUUGU | -2.9 ± 0.15 | -2.12 ± 0.15
AGAAAGCAAUAUUACGAAGA | -2.95 ± 0.24 | -2.27 ± 0.33
AGAAAGCAAUAUUACGACGG | -2.82 ± 0.24 | -0.965 ± 0.29
AGAAAGCAAUAUUACGAGCG | -1.21 ± 0.095 | -0.574 ± 0.13
AGAAAGCAAUAUUACGAUAA | -1.21 ± 0.054 | -0.539 ± 0.073
AGAAAGCAAUAUUACGAUCG | -0.0642 ± 0.072 | -0.026 ± 0.091
AGAAAGCAAUAUUACGAUUA | -0.175 ± 0.12 | -0.183 ± 0.15
AGAAAGCAAUAUUACGCACG | -0.407 ± 0.18 | -0.88 ± 0.22
AGAAAGCAAUAUUACGCAGC | -2.92 ± 0.2 | -2.33 ± 0.2
AGAAAGCAAUAUUACGCAUA | -2.44 ± 0.16 | -1.19 ± 0.16
AGAAAGCAAUAUUACGCCAG | -2.29 ± 0.2 | -0.433 ± 0.17
AGAAAGCAAUAUUACGCCUA | -1.36 ± 0.14 | -1.04 ± 0.17
AGAAAGCAAUAUUACGCGAG | -1.28 ± 0.11 | -0.453 ± 0.13
AGAAAGCAAUAUUACGCGCG | -0.0244 ± 0.1 | -0.00454 ± 0.14
AGAAAGCAAUAUUACGCUAU | -2.98 ± 0.18 | -1.62 ± 0.18

Sequence | self-splicing fitness (ln) (30 °C) | self-splicing fitness (ln) (37 °C)
AGAAAGCAAUAUUACGGAGG | -3.33 ± 0.16 | -2.72 ± 0.3
AGAAAGCAAUAUUACGGCCG | -0.348 ± 0.11 | -0.28 ± 0.14
AGAAAGCAAUAUUACGGGAC | -3.06 ± 0.26 | -2 ± 0.32
AGAAAGCAAUAUUACGGUAU | -2.66 ± 0.14 | -0.578 ± 0.12
AGAAAGCAAUAUUACGGUUA | -0.628 ± 0.1 | -0.679 ± 0.083
AGAAAGCAAUAUUACGUACC | -0.284 ± 0.087 | 0.446 ± 0.12
AGAAAGCAAUAUUACGUAGC | -4.04 ± 0.22 | -2.5 ± 0.2
AGAAAGCAAUAUUACGUAGU | -2.98 ± 0.15 | -1.55 ± 0.1
AGAAAGCAAUAUUACGUAUC | -3.62 ± 0.3 | -2.34 ± 0.24
AGAAAGCAAUAUUACGUCAA | -1.61 ± 0.11 | -0.692 ± 0.1
AGAAAGCAAUAUUACGUCAC | -3.52 ± 0.3 | -2.61 ± 0.38
AGAAAGCAAUAUUACGUGAC | -2.53 ± 0.32 | -1.65 ± 0.24
AGAAAGCAAUAUUACGUGGG | -3.69 ± 0.17 | -1.3 ± 0.12
AGAAAGCAAUAUUACGUGUU | -3.31 ± 0.15 | -1.99 ± 0.12
AGACAGCAAUAUUACGAACC | -0.535 ± 0.12 | -0.29 ± 0.19
AGACAGCAAUAUUACGAAGA | -3.75 ± 0.33 | -2.41 ± 0.34
AGACAGCAAUAUUACGACGC | -0.912 ± 0.086 | -0.726 ± 0.11
AGACAGCAAUAUUACGAGCC | -0.273 ± 0.14 | -0.798 ± 0.21
AGACAGCAAUAUUACGAGGA | -3.17 ± 0.22 | -0.745 ± 0.17
AGACAGCAAUAUUACGAUCC | -0.233 ± 0.083 | -0.102 ± 0.11
AGACAGCAAUAUUACGAUGC | -3.36 ± 0.23 | -2.33 ± 0.19
AGACAGCAAUAUUACGCAGG | -3.5 ± 0.2 | -1.25 ± 0.16
AGACAGCAAUAUUACGCCCG | -0.434 ± 0.17 | -0.555 ± 0.24
AGACAGCAAUAUUACGCGUU | -3.47 ± 0.16 | -2.11 ± 0.14
